Key:
[1] = target: H3 HA; assay: indirect ELISA, coated HA 5 μg/mL, hybridoma supernatant
[2] = target: H5N1 HA蛋白(BIOHJSW，货号orb-EHJ075488) (H5N1 avian influenza virus); assay: as above
[3] = target: H1 HA; assay: as above
[4] = target: H5N1 HA蛋白(BIOHJSW，货号orb-EHJ075488) (H5N1 avian influenza virus)

B1: H5-3F5单克隆抗体 (antibody, V domains shown)
VH: EVQLVESGGGLVQPGGSLRLSCAASGFSLSEAVSGWVRQAPGKGLEWVGVCNNRIPFYLTWCKLFRFTISKDNSKNTLYLQMNSLRAEDTAVYYCARQRSYCNFQPHPNGWGQGTLVTVSS
VL: AYQMTQSPSSVSASVGDRVTITCGQNMMWIPAWLWYQQKPGKAPKLLIYETNGEHYGVPSRFSGSGSGTDFTLTISSLQPEDFATYYCMMMNARKSLQATKFGGGTKVEIK
B1 was tested. Which OD450 [1] did it give?
The OD450 was 0.412 OD450.

What about the OD450 [2] of the same binder?
Its OD450 is 2.62 OD450.

What about the OD450 [3] of the same binder?
The OD450 was 0.231 OD450.

And the Kd [4]?
The Kd was 0.407 nM.
